Data from patent US20150098945A1 (Daiichi Sankyo, published 2015).
Blank lines part the entries; values can stand above or below the binder they belong to.

Assays:
[1] = biological target: T1, N-terminal FLAG-tagged cynomolgus monkey ROBO4, cynoROBO4-2 (pCI-FLAG-cynoROBO4-2) (cynomolgus monkey, UniProt Q8WZ75 28-1007 (human entry)); assay: flow cytometry (FC500), HEK293 cells transfected with pCI-FLAG-cynoROBO4-2, antibody at 10 µg/mL, FITC goat anti-human IgG Fc; control histogram IgG (human IgG)
T1 chain: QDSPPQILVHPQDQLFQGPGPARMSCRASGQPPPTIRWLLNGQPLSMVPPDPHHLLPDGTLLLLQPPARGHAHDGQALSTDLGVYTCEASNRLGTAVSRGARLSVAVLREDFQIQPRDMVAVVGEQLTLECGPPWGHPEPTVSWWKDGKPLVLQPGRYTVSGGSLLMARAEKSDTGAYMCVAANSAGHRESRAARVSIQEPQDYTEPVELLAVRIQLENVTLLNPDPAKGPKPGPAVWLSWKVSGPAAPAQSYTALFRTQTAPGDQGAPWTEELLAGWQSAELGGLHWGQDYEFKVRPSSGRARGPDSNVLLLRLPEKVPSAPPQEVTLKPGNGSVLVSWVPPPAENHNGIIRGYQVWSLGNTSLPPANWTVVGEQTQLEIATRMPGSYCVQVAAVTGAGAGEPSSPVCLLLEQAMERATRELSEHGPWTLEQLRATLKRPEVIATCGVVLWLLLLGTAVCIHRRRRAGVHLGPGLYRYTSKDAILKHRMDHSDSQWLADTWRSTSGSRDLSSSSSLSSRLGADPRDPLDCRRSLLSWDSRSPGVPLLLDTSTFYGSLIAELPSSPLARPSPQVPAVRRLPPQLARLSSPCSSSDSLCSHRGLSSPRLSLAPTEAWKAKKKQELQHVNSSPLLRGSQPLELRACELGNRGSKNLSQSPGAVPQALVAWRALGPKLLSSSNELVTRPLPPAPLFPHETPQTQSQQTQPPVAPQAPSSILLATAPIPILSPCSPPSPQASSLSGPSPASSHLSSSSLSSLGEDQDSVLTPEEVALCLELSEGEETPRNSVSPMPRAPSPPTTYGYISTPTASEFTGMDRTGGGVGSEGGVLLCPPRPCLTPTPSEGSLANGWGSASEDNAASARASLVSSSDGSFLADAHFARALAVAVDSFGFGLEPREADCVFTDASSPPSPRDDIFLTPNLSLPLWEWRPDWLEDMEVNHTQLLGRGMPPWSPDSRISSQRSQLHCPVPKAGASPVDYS

[2] = biological target: N-terminal FLAG-tagged human ROBO1 (pCI-FLAG-hROBO1-transfected HEK293 cells) (human, UniProt Q9Y6N7 58-1651); assay: flow cytometry, HEK293 cells transfected with pCI-FLAG-hROBO1, anti-mouse IgG FITC; control histogram IgG
Chain of N-terminal FLAG-tagged human ROBO1 (pCI-FLAG-hROBO1-transfected HEK293 cells) (Q9Y6N7 other isoform, or with tags, fused parts or gaps): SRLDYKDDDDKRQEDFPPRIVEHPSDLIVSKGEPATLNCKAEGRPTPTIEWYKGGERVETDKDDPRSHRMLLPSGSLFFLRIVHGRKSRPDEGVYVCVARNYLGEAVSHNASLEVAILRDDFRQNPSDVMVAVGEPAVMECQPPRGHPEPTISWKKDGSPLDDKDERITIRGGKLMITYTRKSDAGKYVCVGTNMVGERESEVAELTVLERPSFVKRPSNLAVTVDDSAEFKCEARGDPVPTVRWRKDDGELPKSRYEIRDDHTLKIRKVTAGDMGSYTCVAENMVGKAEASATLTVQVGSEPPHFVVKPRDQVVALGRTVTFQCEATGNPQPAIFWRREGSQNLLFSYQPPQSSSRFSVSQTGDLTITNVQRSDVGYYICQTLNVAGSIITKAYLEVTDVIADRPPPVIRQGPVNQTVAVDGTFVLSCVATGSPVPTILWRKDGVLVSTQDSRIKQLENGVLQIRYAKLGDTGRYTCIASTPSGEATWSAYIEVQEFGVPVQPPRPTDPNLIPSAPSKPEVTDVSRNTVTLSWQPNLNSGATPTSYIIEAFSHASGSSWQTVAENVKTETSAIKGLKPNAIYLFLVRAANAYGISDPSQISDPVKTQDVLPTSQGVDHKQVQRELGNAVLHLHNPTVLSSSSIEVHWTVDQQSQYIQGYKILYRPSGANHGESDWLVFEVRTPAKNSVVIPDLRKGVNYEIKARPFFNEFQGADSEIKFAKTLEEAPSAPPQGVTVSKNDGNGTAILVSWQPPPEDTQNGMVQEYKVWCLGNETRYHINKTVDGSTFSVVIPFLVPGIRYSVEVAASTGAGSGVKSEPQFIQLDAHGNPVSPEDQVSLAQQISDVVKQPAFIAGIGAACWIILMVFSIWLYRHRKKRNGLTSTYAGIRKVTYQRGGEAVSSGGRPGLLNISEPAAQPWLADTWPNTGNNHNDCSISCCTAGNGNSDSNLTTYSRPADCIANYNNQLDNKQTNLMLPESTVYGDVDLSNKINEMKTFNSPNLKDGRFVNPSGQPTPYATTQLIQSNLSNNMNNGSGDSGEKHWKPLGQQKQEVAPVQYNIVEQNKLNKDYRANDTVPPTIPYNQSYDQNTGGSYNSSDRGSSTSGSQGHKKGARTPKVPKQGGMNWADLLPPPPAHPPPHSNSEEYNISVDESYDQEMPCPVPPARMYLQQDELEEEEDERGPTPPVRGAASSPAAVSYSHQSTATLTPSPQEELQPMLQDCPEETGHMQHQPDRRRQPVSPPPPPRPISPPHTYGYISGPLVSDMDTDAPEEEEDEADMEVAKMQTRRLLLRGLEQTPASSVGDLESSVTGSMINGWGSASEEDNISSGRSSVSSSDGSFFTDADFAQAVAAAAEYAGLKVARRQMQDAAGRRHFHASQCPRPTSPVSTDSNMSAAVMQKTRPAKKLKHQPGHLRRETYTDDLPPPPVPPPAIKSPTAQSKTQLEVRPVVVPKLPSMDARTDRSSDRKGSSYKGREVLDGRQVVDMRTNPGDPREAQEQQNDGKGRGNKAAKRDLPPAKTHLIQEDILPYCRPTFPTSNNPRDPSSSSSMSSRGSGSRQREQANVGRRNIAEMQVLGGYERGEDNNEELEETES
Description: HEK293 cells were inoculated at a concentration of 1.2×10⁶ cells/dish or 1.5×10⁶ cells/dish to a 60-mm dish (manufactured by Corning Inc.) and cultured overnight in a DMEM medium containing 10% FBS at 37° C. under 5% CO₂ conditions. On the next day, the HEK293 cells were transfected with pCI-hROBO4, pCI-FLAG-hROBO1, pCI-hROBO2, or pCI-hROBO3 using FuGENE6 Transfection Reagent and further cultured overnight at 37° C. under 5% CO₂ conditions. On the next day, the expression vector-transfected cells were treated with TrypLE Express (manufactured by Life Technologies Corp.), washed with PBS containing 5% FBS, and then suspended in PBS containing 5% FBS. The obtained cell suspension was used in flow cytometry analysis.
Each cell suspension prepared in 4)-4-1 was centrifuged, and the supernatant was removed. […] Data was analyzed using Flowjo. The histogram of FITC fluorescence intensity was prepared. The antibody was determined to bind in a specific manner when the histogram of MAb1 was shifted to a stronger fluorescence intensity region compared with the histogram of the negative control Mouse IgG1 or Mouse IgG2a. […]

binding result [1]: binds
B1: humanized MAb1 antibody H-2140 (antibody, human IgG2, kappa, V domains shown)
VH: EVQLVESGGGLVQPGGSLRLSCAASGFTFSTYAMSWVRQAPGKRLEWVATISQGGTYTYYPDSVKGRFTISRDNAKNTLYLQMNSLRAEDTAVYYCARLIYYDYLDYWGQGTLVTVSS
VL: DIVMTQSPLSLPVTLGEPASISCRSSQSLENSNGNTYLNWYLQKPGQSPQLLIYRVSNRFSGVPDRFSGSGSGTDFTLKISRVEAEDVGVYYCLQVTHVPWTFGPGTKVDIKR
notes: Human IgG2 / kappa constant regions; also called hMAb1-H4-type heavy chain + hMAb1-L1-type light chain

binding result [2]: no binding (tested: 10 µg/mL)
B2: anti-ROBO4 mouse monoclonal antibody MAb1 (antibody, mouse IgG1, V domains shown)
VH: EVQLVESGGGLVKPGGSLKLSCAASGFTFSTYAMSWVRQTPEKRLEWVATISNGGTYTYYPDSVKGRFTISRDNAENTLYLQMSSLRSEDTAMYFCARLIYYDYLDYWGHGTTLTVSS
VL: DAVMTQTPLSLPVSLGDQASISCRSSQSLENSNGNTYLNWYFQKPGQSPQLLIYRVSNRFSGVLDRFSGSGSGTDFTLKISRVEAEDFGVYFCLQVTHVPWTFGGGTKLEIKR
notes: Mouse IgG1 (gamma1), kappa light chain, purified from hybridoma supernatant; also called parent antibody MAb1
